From patent US20110091994A1, “Methods for Screening Compounds for Treating and/or Preventing an Hepatitis C Virus Infection” (priority 2008, published 2011)
Read-outs that look alike come from different tables or passages of the source.

What was measured:
[1] = target: T1, HCV proteins (Hepatitis C virus genotype 1b, UniProt Q9WMX2); test: Validation by Y2H pairwise matrices; type: binding;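 further: yeast two-hybrid pairwise tests of interactions first found in Y2H screens of HCV bait proteins against human cDNA libraries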
T1 construct: expressed in transfected cells
Procedure: A comprehensive interactome map between HCV and cellular proteins was generated by Y2H screens. Twenty seven constructs encoding full-length HCV mature proteins or discrete domains were cloned using a recombination-based cloning system (10) (FIG. 6). Four independent screens were performed with each HCV bait protein, probing two distinct human cDNA libraries (Supplementary Methods). […] Two validation methods were used to assess the confidence of the IMAP Y2H dataset.

[2] = system: HCV ORFs (Gal4-DB fusions); type: binding, HCV genotype 1b, isolate con1; details: human protein listed by gene symbol; the value names the HCV protein it interacts with
[3] = target: T2, HCV ORFs (Gal4-DB fusions) (Hepatitis C virus genotype 1b, UniProt Q9WMX2); type: binding, HCV genotype 1b, isolate con1; details: human protein as prey
T2 construct: expressed in transfected cells; host or cells: Saccharomyces cerevisiae MAV203 (IMAP1) / AH109 (IMAP2)

[4] = validation of interaction with HCV protein NS3
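Wherever IMAP Y2H IMAP1 (number of IST) is given: yeast two-hybrid screens using HCV genotype 1b proteins fused to Gal4-DB as baits against prey cDNA libraries from human spleen and foetal brain, IMAP1 via transformation and IMAP2 via mating.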
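Wherever Interaction with viral protein is given: yeast two-hybrid screens using HCV genotype 1b proteins fused to Gal4-DB as baits against prey cDNA libraries from human spleen and foetal brain, IMAP1 via transformation and IMAP2 via mating.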

Row | Molecule | Y2H matrices [1, 4] | Interaction with viral protein [2] | IMAP Y2H IMAP1 (number of IST) ([3]; HCV protein NS3 as bait) | Y2H matrices ([1]; interaction with HCV protein p7) | IMAP Y2H IMAP1 (number of IST) ([3]; HCV protein p7 as bait)
1 | SPON1 (protein, UniProt Q9HCB6 29-807, looked up) Spondin-1: FSDETLDKVPKSEGYCSRILRAQGTRREGYTEFSLRVEGDPDFYKPGTSYRVTLSAAPPSYFRGFTLIALRENREGDKEEDHAGTFQIIDEEETQFMSNCPVAVTESTPRRRTRIQVFWIAPPAGTGCVILKASIVQKRIIYFQDEGSLTKKLCEQDSTFDGVTDKPILDCCACGTAKYRLTFYGNWSEKTHPKDYPRRANHWSAIIGGSHSKNYVLWEYGGYASEGVKQVAELGSPVKMEEEIRQQSDEVLTVIKAKAQWPAWQPLNVRAAPSAEFSVDRTRHLMSFLTMMGPSPDWNVGLSAEDLCTKECGWVQKVVQDLIPWDAGTDSGVTYESPNKPTIPQEKIRPLTSLDHPQSPFYDPEGGSITQVARVVIERIARKGEQCNIVPDNVDDIVADLAPEEKDEDDTPETCIYSNWSPWSACSSSTCDKGKRMRQRMLKAQLDLSVPCPDTQDFQPCMGPGCSDEDGSTCTMSEWITWSPCSISCGMGMRSRERYVKQFPEDGSVCTLPTEETEKCTVNEECSPSSCLMTEWGEWDECSATCGMGMKKRHRMIKMNPADGSMCKAETSQAEKCMMPECHTIPCLLSPWSEWSDCSVTCGKGMRTRQRMLKSLAELGDCNEDLEQVEKCMLPECPIDCELTEWSQWSECNKSCGKGHVIRTRMIQMEPQFGGAPCPETVQRKKCRIRKCLRNPSIQKLRWREARESRRSEQLKEESEGEQFPGCRMRPWTAWSECTKLCGGGIQERYMTVKKRFKSSQFTSCKDKKEIRACNVHPC | + | NS3 | 1 | – | –
2 | SPOCK3 (protein, UniProt Q9BQ16 22-436, looked up) Testican-3: AAAAVAAAGGRSDGGNFLDDKQWLTTISQYDKEVGQWNKFRDEVEDDYFRTWSPGKPFDQALDPAKDPCLKMKCSRHKVCIAQDSQTAVCISHRRLTHRMKEAGVDHRQWRGPILSTCKQCPVVYPSPVCGSDGHTYSFQCKLEYQACVLGKQISVKCEGHCPCPSDKPTSTSRNVKRACSDLEFREVANRLRDWFKALHESGSQNKKTKTLLRPERSRFDTSILPICKDSLGWMFNRLDTNYDLLLDQSELRSIYLDKNEQCTKAFFNSCDTYKDSLISNNEWCYCFQRQQDPPCQTELSNIQKRQGVKKLLGQYIPLCDEDGYYKPTQCHGSVGQCWCVDRYGNEVMGSRINGVADCAIDFEISGDFASGDFHEWTDDEDDEDDIMNDEDEIEDDDEDEGDDDDGGDDHDVYI | + | NS3 | 1 | – | –
3 | SLIT3 (protein, UniProt O75094 34-1523, looked up) Slit homolog 3 protein: CPTKCTCSAASVDCHGLGLRAVPRGIPRNAERLDLDRNNITRITKMDFAGLKNLRVLHLEDNQVSVIERGAFQDLKQLERLRLNKNKLQVLPELLFQSTPKLTRLDLSENQIQGIPRKAFRGITDVKNLQLDNNHISCIEDGAFRALRDLEILTLNNNNISRILVTSFNHMPKIRTLRLHSNHLYCDCHLAWLSDWLRQRRTVGQFTLCMAPVHLRGFNVADVQKKEYVCPAPHSEPPSCNANSISCPSPCTCSNNIVDCRGKGLMEIPANLPEGIVEIRLEQNSIKAIPAGAFTQYKKLKRIDISKNQISDIAPDAFQGLKSLTSLVLYGNKITEIVKGLFDGLVSLQLLLLNANKINCLRVNTFQDLQNLNLLSLYDNKLQTISKGLFAPLQSIQTLHLAQNPFVCDCHLKWLADYLQDNPIETSGARCSSPRRLANKRISQIKSKKFRCSGSEDYRSRFSSECFMDLVCPEKCRCEGTIVDCSNQKLVRIPSHLPEYVTDLRLNDNEVSVLEATGIFKKLPNLRKINLSNNKIKEVREGAFDGAASVQELMLTGNQLETVHGRVFRGLSGLKTLMLRSNLIGCVSNDTFAGLSSVRLLSLYDNRITTITPGAFTTLVSLSTINLLSNPFNCNCHLAWLGKWLRKRRIVSGNPRCQKPFFLKEIPIQDVAIQDFTCDGNEESSCQLSPRCPEQCTCMETVVRCSNKGLRALPRGMPKDVTELYLEGNHLTAVPRELSALRHLTLIDLSNNSISMLTNYTFSNMSHLSTLILSYNRLRCIPVHAFNGLRSLRVLTLHGNDISSVPEGSFNDLTSLSHLALGTNPLHCDCSLRWLSEWVKAGYKEPGIARCSSPEPMADRLLLTTPTHRFQCKGPVDINIVAKCNACLSSPCKNNGTCTQDPVELYRCACPYSYKGKDCTVPINTCIQNPCQHGGTCHLSDSHKDGFSCSCPLGFEGQRCEINPDDCEDNDCENNATCVDGINNYVCICPPNYTGELCDEVIDHCVPELNLCQHEAKCIPLDKGFSCECVPGYSGKLCETDNDDCVAHKCRHGAQCVDTINGYTCTCPQGFSGPFCEHPPPMVLLQTSPCDQYECQNGAQCIVVQQEPTCRCPPGFAGPRCEKLITVNFVGKDSYVELASAKVRPQANISLQVATDKDNGILLYKGDNDPLALELYQGHVRLVYDSLSSPPTTVYSVETVNDGQFHSVELVTLNQTLNLVVDKGTPKSLGKLQKQPAVGINSPLYLGGIPTSTGLSALRQGTDRPLGGFHGCIHEVRINNELQDFKALPPQSLGVSPGCKSCTVCKHGLCRSVEKDSVVCECRPGWTGPLCDQEARDPCLGHRCHHGKCVATGTSYMCKCAEGYGGDLCDNKNDSANACSAFKCHHGQCHISDQGEPYCLCQPGFSGEHCQQENPCLGQVVREVIRRQKGYASCATASKVPIMECRGGCGPQCCQPTRSKRRKYVFQCTDGSSFVEEVERHLECGCLACS | + | NS3 | 4 | – | –
4 | SRPX2 (protein, UniProt O60687 24-465, looked up) Sushi repeat-containing …: TWYAGSGYYPDESYNEVYAEEVPQAPALDYRVPRWCYTLNIQDGEATCYSPKGGNYHSSLGTRCELSCDRGFRLIGRRSVQCLPSRRWSGTAYCRQMRCHALPFITSGTYTCTNGVLLDSRCDYSCSSGYHLEGDRSRICMEDGRWSGGEPVCVDIDPPKIRCPHSREKMAEPEKLTARVYWDPPLVKDSADGTITRVTLRGPEPGSHFPEGEHVIRYTAYDRAYNRASCKFIVKVQVRRCPTLKPPQHGYLTCTSAGDNYGATCEYHCDGGYDRQGTPSRVCQSSRQWSGSPPICAPMKINVNVNSAAGLLDQFYEKQRLLIISAPDPSNRYYKMQISMLQQSTCGLDLRHVTIIELVGQPPQEVGRIREQQLSANIIEELRQFQRLTRSYFNMVLIDKQGIDRDRYMEPVTPEEIFTFIDDYLLSNQELTQRREQRDICE | + | NS3 | 1 | – | –
5 | SLIT2 (protein, UniProt O94813 31-1529, looked up) Slit homolog 2 protein: QCSCSGSTVDCHGLALRSVPRNIPRNTERLDLNGNNITRITKTDFAGLRHLRVLQLMENKISTIERGAFQDLKELERLRLNRNHLQLFPELLFLGTAKLYRLDLSENQIQAIPRKAFRGAVDIKNLQLDYNQISCIEDGAFRALRDLEVLTLNNNNITRLSVASFNHMPKLRTFRLHSNNLYCDCHLAWLSDWLRQRPRVGLYTQCMGPSHLRGHNVAEVQKREFVCSGHQSFMAPSCSVLHCPAACTCSNNIVDCRGKGLTEIPTNLPETITEIRLEQNTIKVIPPGAFSPYKKLRRIDLSNNQISELAPDAFQGLRSLNSLVLYGNKITELPKSLFEGLFSLQLLLLNANKINCLRVDAFQDLHNLNLLSLYDNKLQTIAKGTFSPLRAIQTMHLAQNPFICDCHLKWLADYLHTNPIETSGARCTSPRRLANKRIGQIKSKKFRCSAKEQYFIPGTEDYRSKLSGDCFADLACPEKCRCEGTTVDCSNQKLNKIPEHIPQYTAELRLNNNEFTVLEATGIFKKLPQLRKINFSNNKITDIEEGAFEGASGVNEILLTSNRLENVQHKMFKGLESLKTLMLRSNRITCVGNDSFIGLSSVRLLSLYDNQITTVAPGAFDTLHSLSTLNLLANPFNCNCYLAWLGEWLRKKRIVTGNPRCQKPYFLKEIPIQDVAIQDFTCDDGNDDNSCSPLSRCPTECTCLDTVVRCSNKGLKVLPKGIPRDVTELYLDGNQFTLVPKELSNYKHLTLIDLSNNRISTLSNQSFSNMTQLLTLILSYNRLRCIPPRTFDGLKSLRLLSLHGNDISVVPEGAFNDLSALSHLAIGANPLYCDCNMQWLSDWVKSEYKEPGIARCAGPGEMADKLLLTTPSKKFTCQGPVDVNILAKCNPCLSNPCKNDGTCNSDPVDFYRCTCPYGFKGQDCDVPIHACISNPCKHGGTCHLKEGEEDGFWCICADGFEGENCEVNVDDCEDNDCENNSTCVDGINNYTCLCPPEYTGELCEEKLDFCAQDLNPCQHDSKCILTPKGFKCDCTPGYVGEHCDIDFDDCQDNKCKNGAHCTDAVNGYTCICPEGYSGLFCEFSPPMVLPRTSPCDNFDCQNGAQCIVRINEPICQCLPGYQGEKCEKLVSVNFINKESYLQIPSAKVRPQTNITLQIATDEDSGILLYKGDKDHIAVELYRGRVRASYDTGSHPASAIYSVETINDGNFHIVELLALDQSLSLSVDGGNPKIITNLSKQSTLNFDSPLYVGGMPGKSNVASLRQAPGQNGTSFHGCIRNLYINSELQDFQKVPMQTGILPGCEPCHKKVCAHGTCQPSSQAGFTCECQEGWMGPLCDQRTNDPCLGNKCVHGTCLPINAFSYSCKCLEGHGGVLCDEEEDLFNPCQAIKCKHGKCRLSGLGQPYCECSSGYTGDSCDREISCRGERIRDYYQKQQGYAACQTTKKVSRLECRGGCAGGQCCGPLRSKRRKYSFECTDGSSFVDEVEKVVKCGCTRCVS | + | NS3 | 5 | + | 1
6 | SNX4 (protein, UniProt O95219 1-450, looked up) Sorting nexin-4: MEQAPPDPERQLQPAPLEPLGSPDAGLGAAVGKEAEGAGEESSGVDTMTHNNFWLKKIEISVSEAEKRTGRNAMNMQETYTAYLIETRSVEHTDGQSVLTDSLWRRYSEFELLRSYLLVYYPHIVVPPLPEKRAEFVWHKLSADNMDPDFVERRRIGLENFLLRIASHPILCRDKIFYLFLTQEGNWKETVNETGFQLKADSRLKALNATFRVKNPDKRFTDLKHYSDELQSVISHLLRVRARVADRLYGVYKVHGNYGRVFSEWSAIEKEMGDGLQSAGHHMDVYASSIDDILEDEEHYADQLKEYLFYAEALRAVCRKHELMQYDLEMAAQDLASKKQQCEELVTGTVRTFSLKGMTTKLFGQETPEQREARIKVLEEQINEGEQQLKSKNLEGREFVKNAWADIERFKEQKNRDLKEALISYAVMQISMCKKGIQVWTNAKECFSKM | + | NS3 | 1 | – | –
